Test results taken from patent US20150352207A1, “USE OF ANTIBODIES AGAINST ICAM-1 IN COMBINATION WITH AN ANTI CANCER DRUG IN THE TREATMENT OF PATIENTS” (BIOINVENT INTERNATIONAL AB, priority 2013, published 2015).
Entries after “also recorded” stand apart in the source; their conditions may differ.

Key:
[1] = system: RPMI-8226 myeloma cells; test: Subcutaneous scid myeloma xenograft, RPMI-8226; format: in vivo, scid mice; conditions: 2 mg/kg twice weekly
Experimental: Antibody treatment with 2 mg/kg B11 or control IgG1 was started at Day 1 and was continued on a twice-weekly intraperitoneal dosing regimen. Mice were sacrificed when tumor sizes reached the ethical limit.

[2] = system: RPMI-8226 myeloma cells; test: Advanced disseminated RPMI-8226 multiple myeloma model; format: in vivo, SCID mice; conditions: for survival: B11 2 mg/kg i.v. twice weekly for 8 weeks
Experimental: ARH-77 cells or RPMI-8226 were injected intravenously into the SCID mice. (A) ARH-77 model. Animals received intravenous injections with antibody at 2 mg/kg or bortezomib (Velcade) at 0.5 mg/kg on Days 7, 10, 13, and 16 (as indicated by arrows in the graph). (B) RPMI-8226-model. B11 or control mAb was administered i.v at 2 mg/kg, twice weekly for 8 weeks, bortezomid, at 1 mg/kg, once weekly for 8 weeks, lenalidomide p.o with 2 mg/kg for 2 cycles consisting of 5 days of treatment and 2 days of wash out, melphalan i.v at 3 mg/kg, once weekly for 8 weeks, and dexamethasone (DXH) at 6 mg/kg/inj 3 times/week for 2 consecutive weeks. There were 6-10 mice per treatment group. Statistical significance was calculated using Log-rank Graphpad Prism software and determined at ***p<0.001. (C) To study the ICAM-1 level on human cells, the cells from different organs were stained and gated for CD38+/mCD45−/B11+. Left panel indicates the percentage of B11 positive cells in CD38+/mCD45 population and right panel the mean fluorescent intensity of the positive cells.
The anti-myeloma effect of B11 was examined in a disseminated model of multiple myeloma. The early and advanced disseminated model of multiple myeloma was performed at Oncodesign, Dijon, France. Briefly: 1×10^6 (early) or 5×10^6 (advanced) ARH-77 tumor cells in 200 μL of RPMI 1640 were injected intravenously (i.v) into the caudal vein of female scid mice (D0). Tumor cell injections were performed twenty four to forty eight hours after a whole body irradiation of mice (1.8 Gy, ^60Co, INRA, BRETENNIERES). The treatment was started at D5 RPMI-8226 model or D7 (ARH-77 model) […]. B11 or control mAb was administered i.v. at 2 mg/kg, twice weekly for 8 weeks, bortezomib, at 1 mg/kg, once weekly for 8 weeks, lenalidomide p.o with 2 mg/kg for 2 cycles consisting of 5 days of treatment and 2 days of wash out, melphalan i.v. at 3 mg/kg, once weekly for 8 weeks, and dexamethasone at 6 mg/kg 1 injected 3 times a week for 2 consecutive weeks.
200 μl containing 10×10^6 of RPMI 8226 tumour cells was intravenously injected into the caudal vein of female SCID mice. The mice had been subjected to a whole body irradiation of mice (1.8 Gy, ^60Co, BioMEP) 24 to 72 hours prior to cell injection. At D1, tumor injected mice were randomized according to their individual body weight. All treatment started day 5 after tumor cell administration except for ALKERAN®, which started at day 10. All treatments were injected in a dose volume of 10 ml/kg/inj. Mice received one of the following treatments:
Monoclonal anti-ICAM mAb or control mAb was administered i.v in a PBS solution containing at 2 mg/kg, 2 times/week for 8 consecutive weeks. […]

[3] = system: B lymphoma cell line (CL-01); test: Antibody-dependent cell-mediated cytotoxicity (ADCC) with natural killer effector cells; format: cell-based; conditions: human Natural Killer effector cells
Text: Buffy coats from human donors (ordered through Blodcentralen, Lund) were used to isolate peripheral blood mononuclear cells (PBMCs), and subsequently NK cells. Briefly, peripheral blood components were separated using Ficoll Paque PLUS (Amersham Biosciences, Sweden) in LeucoSep tubes (Greiner Bio-One). The PBMC fraction was removed and thoroughly washed in ice-cold DPBS (Invitrogen), before magnetic labeling and separation of the NK cell population using positive or negative NK cell isolation kits and MACS LS columns (Miltenyi Biotec). The purity of the obtained NK cell fractions was analyzed using flow cytometry, after staining with α-CD56 antibodies (BD Biosciences). Target cells were harvested, and incubated in medium with or without the respective antibodies (2 μg/mL) for 60 min on ice. Cells were thereafter washed and resuspended in cold medium before dispension into FACS tubes. Subsequently, isolated NK cells were diluted in ADCC medium and dispensed together with the respective antibody-coated target cells at varying effector/target cell ratios (40:1, 20:1, 5:1 and 1:1). All experiments were performed in triplicates. After completed incubation ToPo-Pro-3 dye and counting beads (Invitrogen) were added and cells were analyzed for membrane permeabilization using flow cytometry.

[4] = system: peripheral blood B cells; test: PCD in normal peripheral blood B cells; format: cell-based; conditions: resting or activated peripheral blood B cells
Experimental: Target cells were seeded in 96-well culture plates at a density of 2×10^6 cells/mL culture medium. Titrated concentrations of IgG1 B11 or different negative and positive control antibodies were added to the cells, in the absence or presence of anti-human Fab fragment (Jackson ImmunoResearch) for cross-linking. The cells were then incubated for 16 hours at 37° C. in a humidified atmosphere of 5% CO2. The cells were harvested and stained for Annexin V-488/Propidium Iodide (Invitrogen, Sweden) and analysed using flow cytometer (FACS Calibur, BD Bioscience).

[5] = system: ARH-77 cells; test: Subcutaneous scid/ARH-77 xenograft, treatment from the day after cell inoculation (prophylactic model)
Experimental: Tumor cells were injected subcutaneously into the left flank of SCID mice. Mice received twice-weekly intraperitoneal injections with B11, control antibody or rituximab at doses of 20, 2 and/or 0.2 mg/kg commencing one day after tumor cell inoculation. There were 8 to 10 animals per treatment group. (A) Tumor volume as a function of antibody dose. (B) Kaplan-Meier survival graph as a function of antibody dose. […] Statistical significance was calculated relative to control antibody treatment using Kruskal-Wallis Test (Nonparametric ANOVA) with Dunn's Multiple Comparisons Test (tumor volume) or the log-rank test (mouse survival) using Graphpad Instat or Prism software, respectively. Statistical significance was considered for *p<0.05, **p<0.01, and ***p<0.001.
Tumor cells were injected subcutaneously into the left flank of SCID mice. Mice received twice-weekly intraperitoneal injections with B11 at doses of 0.02-20 mg/kg commencing day after tumor cell inoculation. There were 8-10 animals per treatment group. (A) Tumor volume as a function of antibody dose. (B) Kaplan-Meier survival graph as a function of antibody dose. Statistical significance was calculated relative to control antibody treatment using Kruskal-Wallis Test (Nonparametric ANOVA) with Dunn's Multiple Comparisons Test (tumor volume) or the log-rank test (mouse survival) using Graphpad Instat or Prism software, respectively. Statistical significance was considered for *p<0.05, **p<0.01, and ***p<0.001. Graphs illustrate representative experiments out of several performed.
(A) ARH-77 cells were injected subcutaneously into the left flank of SCID mice (n=8 per group). Mice were treated with the different B11 isotypes twice weekly. […] Statistical significance was calculated relative to control antibody treatment using Kruskal-Wallis Test (Nonparametric ANOVA) with Dunn's Multiple Comparisons Test. Statistical significance was considered for *p<0.05, **p<0.01, and ***p<0.001.
Mice were anaesthetized with a mixture of sevofluran and oxygen prior to myeloma cell inoculation and 1-5×10^6 myeloma cells were then subcutaneously injected in a volume of 100 μl into the left flank. Treatment with antibodies by intraperitonial (i.p.) injections was started either the day after cell inoculation (prophylactic model) or when tumors reached a size of approximately 100 mm^3 (established model).

B1: IgG B11: novel human ICAM-1 antibody targeting the B11 epitope, isolated from the naïve antibody library n-CoDeR (antibody, V domains shown)
VH: EVQLLESGGGLVQPGGSLRLSCAASGFTFSNAWMSWVRQAPGKGLEWVAFIWYDGSNKYYADSVKGRFTISRDNSKNTLYLQMNSLRAEDTAVYYCARYSGWYFDYWGQGTLVTVSS
VL: QSVLTQPPSASGTPGQRVTISCTGSSSNIGAGYDVHWYQQLPGTAPKLLIYDNNNRPSGVPDRFSGSKSGTSASLAISGLRSEDEADYYCQSYDSSLSAWLFGGGTKLTVLG
modifications: B11 antibody variable H region; B11 antibody variable L region
B1 was tested, and the “reduction of myeloma tumor growth” value [1] was 96%, the survival [2] was “significantly enhanced survival; also recorded: trend towards improved survival in IgG B11 treated mice compared to mice treated with the immunomodulatory drug revlimid” and the survival ([2]; listed as B11, 2 mg/kg) was “significantly enhances survival; also recorded: highly improved survival”. For the same molecule, the survival ([2]; listed as anti ICAM-1 mAb) was “more effective compared to other SOC single therapies”, the disease onset ([2]; B11 2 mg/kg i.v. twice weekly, compared to bortesomib and dexamethasone) was “delayed disease onset” and the “ADCC of target tumor cells” value ([3]; listed as B11) was “mediated FcγRIIIA-dependent ADCC”. For the same molecule, the “ADCC of target tumor cells” value ([3]; listed as IgG B11 IgG1) was “mediated ADCC of target tumor cells”, the “programmed cell death of normal B cells” value [4] was “did not, however, induce PCD” and the “programmed cell death of normal B cells” value ([4]; listed as B11) was “not significantly affected”. The tumor growth ([5]; 20 mg/kg twice weekly i.p., commencing one day after tumor cell inoculation) was “completely prevent tumor-growth”, the “anti-tumor activity in dose-titration experiment” value ([5]; B11 0.02-20 mg/kg twice weekly i.p.) was “peaked at the 2 mg/kg dose and remained near maximal at a dose of 0.2 mg/kg” and the survival ([5]; IgG B11 at 2 mg/kg, ten-fold lower dose than rituximab) was “complete survival”. The “anti-tumor activities of IgG B11 isotype switch variants (rank order)” value ([5]; twice weekly treatment, s.c. ARH-77) was “increased in the order of IgG1N297Q<IgG4<IgG1”.
